Measured values taken from the supplement of paper PMC9112550, “Optimization of the antimicrobial peptide Bac7 by deep mutational scanning” (BMC Biology, 2022).

Tested on: Escherichia coli TOP10
Experiment: shrunken log2 fold change of peptide-encoding DNA abundance (4.5 h post-induction vs induction); higher = less antimicrobial activity (less host growth inhibition)
Settings: time post-induction: 4.5 h; library: site-saturation at positions 5, 18, 19, 20
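Also: peptides expressed intracellularly from a pBAD plasmid library in pooled LB shake-flask culture, induced with 0.3% L-arabinose, DNA abundance read by NGS, three biological replicates, DESeq2 with apeglm shrinkage.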

RRIRLRPPRLPRPRPRPSISPRP
shrunken log2 fold change: -0.655

RRIRKRPPRLPRPRPRPWMPPRP
shrunken log2 fold change: 0.0548

RRIRSRPPRLPRPRPRPTHHPRP
shrunken log2 fold change: 0.189

RRIRHRPPRLPRPRPRPDDTPRP
shrunken log2 fold change: -0.00674

RRIRVRPPRLPRPRPRPQFSPRP
shrunken log2 fold change: -0.0362

RRIRHRPPRLPRPRPRPSHLPRP
shrunken log2 fold change: -0.0467

RRIRRRPPRLPRPRPRPYVHPRP
shrunken log2 fold change: -0.356

RRIRSRPPRLPRPRPRPTVFPRP
shrunken log2 fold change: 0.222

RRIRGRPPRLPRPRPRPASPPRP
shrunken log2 fold change: 0.323

RRIRYRPPRLPRPRPRPTQPPRP
shrunken log2 fold change: 0.409

RRIRWRPPRLPRPRPRPTRSPRP
shrunken log2 fold change: 0.723

RRIRTRPPRLPRPRPRPRFSPRP
shrunken log2 fold change: -0.14

RRIRIRPPRLPRPRPRPQMGPRP
shrunken log2 fold change: -0.0795

RRIRERPPRLPRPRPRPKILPRP
shrunken log2 fold change: -0.0994

RRIRWRPPRLPRPRPRPHIRPRP
shrunken log2 fold change: 0.00375

RRIRPRPPRLPRPRPRPPLTPRP
shrunken log2 fold change: 0.274

RRIRIRPPRLPRPRPRPEIVPRP
shrunken log2 fold change: -0.255

RRIRVRPPRLPRPRPRPQPVPRP
shrunken log2 fold change: -0.195

RRIRDRPPRLPRPRPRPCWNPRP
shrunken log2 fold change: -0.389

RRIRTRPPRLPRPRPRPGKSPRP
shrunken log2 fold change: -0.402

RRIRCRPPRLPRPRPRPYHMPRP
shrunken log2 fold change: -0.56

RRIRCRPPRLPRPRPRPWLIPRP
shrunken log2 fold change: -0.564

RRIRMRPPRLPRPRPRPCSWPRP
shrunken log2 fold change: 0.0611

RRIRIRPPRLPRPRPRPDCRPRP
shrunken log2 fold change: -0.015

RRIRQRPPRLPRPRPRPFKKPRP
shrunken log2 fold change: 0.0942

RRIRMRPPRLPRPRPRPFMIPRP
shrunken log2 fold change: -0.0423

RRIRLRPPRLPRPRPRPKESPRP
shrunken log2 fold change: 0.0595

RRIRQRPPRLPRPRPRPRECPRP
shrunken log2 fold change: 0.147

RRIRNRPPRLPRPRPRPVPKPRP
shrunken log2 fold change: 0.883

RRIRKRPPRLPRPRPRPEHGPRP
shrunken log2 fold change: 0.0647

RRIRWRPPRLPRPRPRPHWFPRP
shrunken log2 fold change: 0.0392

RRIRQRPPRLPRPRPRPGHCPRP
shrunken log2 fold change: 0.217

RRIRCRPPRLPRPRPRPQGRPRP
shrunken log2 fold change: 0.445

RRIRLRPPRLPRPRPRPVLKPRP
shrunken log2 fold change: 0.0956

RRIRERPPRLPRPRPRPSWWPRP
shrunken log2 fold change: 2.26

RRIRMRPPRLPRPRPRPYKRPRP
shrunken log2 fold change: -0.0368

RRIRMRPPRLPRPRPRPDATPRP
shrunken log2 fold change: 3.93
